Results reported in the supplement of paper PMC10567573.

B1: ZNF263 (parent)
chain: VPGTQVGQGGKLWDPSVQSCKEGL
B2: TMEM175 (parent)
chain: ALLHQAETLQPSVWFGGREHVLMF
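Further: lentivirally expressed fusions sorted by FACS into six bins by GFP to DsRed ratio, PSI derived from sequencing read proportions per bin multiplied by bin number.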

Variants of: B1
Test: protein stability index of a GFP-peptide fusion (GPS, HEK-293T) (PSI 1-6); higher = more stable
Details: c terminus: a fixed tail appended
In the case of Q18K, the protein stability index is reported as 4.39.
Work on Q18L yielded a protein stability index of 3.97.
Work on Q18M yielded a protein stability index of 4.38.
In the case of Q18N, the protein stability index is reported as 3.42.
With Q18P the protein stability index was 4.38.
Q18R gave a protein stability index of 3.05.
For Q18S, the protein stability index was 3.88.
In the case of Q18T, the protein stability index is reported as 4.47.
Variant Q18V has a protein stability index of 3.87.
In the case of Q18W, the protein stability index is reported as 3.
Q18Y showed a protein stability index of 4.01.
S19A showed a protein stability index of 4.35.
In the case of S19C, the protein stability index is reported as 3.39.
Variant S19D has a protein stability index of 4.88.
Work on S19E yielded a protein stability index of 4.38.
S19F gave a protein stability index of 3.98.
For S19G, the protein stability index was 4.41.
Variant S19H has a protein stability index of 4.05.
With S19I the protein stability index was 3.77.
Variant S19K has a protein stability index of 4.25.
Variant S19L has a protein stability index of 4.04.
S19M gave a protein stability index of 3.69.
S19N gave a protein stability index of 4.39.
S19P showed a protein stability index of 4.33.
Variant S19Q has a protein stability index of 4.3.
In the case of S19R, the protein stability index is reported as 3.89.
S19T gave a protein stability index of 4.29.
For S19V, the protein stability index was 4.31.
Variant S19W has a protein stability index of 3.38.
With S19Y the protein stability index was 3.76.
Work on C20A yielded a protein stability index of 4.15.
In the case of C20D, the protein stability index is reported as 4.59.
With C20E the protein stability index was 5.02.
Variant C20F has a protein stability index of 3.1.
C20G gave a protein stability index of 4.74.
C20H showed a protein stability index of 3.6.
With C20I the protein stability index was 3.79.
Work on C20K yielded a protein stability index of 4.13.
C20L gave a protein stability index of 4.05.
C20M showed a protein stability index of 4.43.
Work on C20N yielded a protein stability index of 4.68.
C20P gave a protein stability index of 4.33.
Work on C20Q yielded a protein stability index of 4.6.
For C20R, the protein stability index was 4.04.
In the case of C20S, the protein stability index is reported as 4.31.
Work on C20T yielded a protein stability index of 4.25.
For C20V, the protein stability index was 4.36.
C20W showed a protein stability index of 3.08.
C20Y showed a protein stability index of 3.52.
K21A gave a protein stability index of 3.91.
With K21C the protein stability index was 4.64.
In the case of K21D, the protein stability index is reported as 4.79.
K21E gave a protein stability index of 4.78.
With K21F the protein stability index was 3.27.
In the case of K21G, the protein stability index is reported as 3.99.
K21H gave a protein stability index of 4.05.
Variant K21L has a protein stability index of 3.69.
Variant K21M has a protein stability index of 3.92.
K21N showed a protein stability index of 4.16.
K21Q showed a protein stability index of 4.29.
Variant K21R has a protein stability index of 4.04.
Variant K21S has a protein stability index of 3.72.
For K21T, the protein stability index was 5.17.
Variant K21V has a protein stability index of 3.89.
For K21W, the protein stability index was 3.52.
For K21Y, the protein stability index was 3.4.
Variant E22A has a protein stability index of 3.06.
E22C gave a protein stability index of 3.42.
E22D gave a protein stability index of 4.25.
E22F showed a protein stability index of 2.58.
With E22G the protein stability index was 4.34.
E22H showed a protein stability index of 3.98.
In the case of E22I, the protein stability index is reported as 3.23.
For E22K, the protein stability index was 4.49.
E22L gave a protein stability index of 2.96.
Variant E22M has a protein stability index of 3.13.
E22N gave a protein stability index of 3.64.
Work on E22P yielded a protein stability index of 3.46.
Variant E22Q has a protein stability index of 3.84.
E22R showed a protein stability index of 4.05.
For E22S, the protein stability index was 3.95.
Work on E22T yielded a protein stability index of 4.42.
With E22V the protein stability index was 3.79.
With E22W the protein stability index was 1.99.
E22Y showed a protein stability index of 3.07.
Variant G23A has a protein stability index of 3.89.
With G23C the protein stability index was 3.59.
For G23D, the protein stability index was 4.36.
G23E gave a protein stability index of 4.4.
Work on G23F yielded a protein stability index of 2.69.
In the case of G23H, the protein stability index is reported as 3.64.
Variant G23I has a protein stability index of 3.46.
Work on G23K yielded a protein stability index of 4.35.
For G23L, the protein stability index was 3.62.
In the case of G23M, the protein stability index is reported as 3.88.
Variant G23N has a protein stability index of 4.34.
For G23P, the protein stability index was 4.32.
Work on G23Q yielded a protein stability index of 3.51.
Work on G23R yielded a protein stability index of 4.34.
With G23S the protein stability index was 3.98.
G23T gave a protein stability index of 3.96.
G23V gave a protein stability index of 4.6.
With G23W the protein stability index was 3.12.
Variant G23Y has a protein stability index of 2.96.
L24A gave a protein stability index of 4.69.
For L24C, the protein stability index was 3.9.
Work on L24D yielded a protein stability index of 5.51.
Variant L24E has a protein stability index of 5.18.
Work on L24F yielded a protein stability index of 4.11.
In the case of L24G, the protein stability index is reported as 4.49.
Variant L24H has a protein stability index of 4.27.
Variant L24I has a protein stability index of 4.22.
In the case of L24K, the protein stability index is reported as 4.8.
With L24M the protein stability index was 4.09.
Work on L24N yielded a protein stability index of 4.76.
L24P gave a protein stability index of 4.79.
Variant L24Q has a protein stability index of 5.03.
In the case of L24R, the protein stability index is reported as 4.92.
For L24S, the protein stability index was 4.99.
L24T gave a protein stability index of 4.26.
For L24V, the protein stability index was 4.35.
Work on L24W yielded a protein stability index of 4.32.
Variant L24Y has a protein stability index of 3.73.

Variants of: B2
Test: as above
Details: c terminus: a fixed tail appended
G17T gave a protein stability index of 2.68.
E7H showed a protein stability index of 3.
For S12H, the protein stability index was 1.15.
F24D gave a protein stability index of 2.69.
Variant F24P has a protein stability index of 1.54.
M23G gave a protein stability index of 3.51.
In the case of V21K, the protein stability index is reported as 2.1.
Variant W14I has a protein stability index of 2.22.
P11Q gave a protein stability index of 1.38.
Work on R18G yielded a protein stability index of 2.08.
With L22K the protein stability index was 1.94.
For V13M, the protein stability index was 2.46.
E19A gave a protein stability index of 2.27.
In the case of L22P, the protein stability index is reported as 2.05.
H20E gave a protein stability index of 1.6.
In the case of L22M, the protein stability index is reported as 2.03.
For G16C, the protein stability index was 2.98.
L2H gave a protein stability index of 1.48.
G16T gave a protein stability index of 1.47.
With G17I the protein stability index was 2.68.
M23D showed a protein stability index of 1.04.
L9F showed a protein stability index of 2.49.
With V21L the protein stability index was 2.41.
For Q5E, the protein stability index was 1.07.
For L22T, the protein stability index was 1.78.
A6H gave a protein stability index of 2.17.
In the case of L9A, the protein stability index is reported as 2.42.
Variant F15G has a protein stability index of 2.22.
Variant L22Y has a protein stability index of 2.94.
In the case of H4C, the protein stability index is reported as 3.01.
W14Y showed a protein stability index of 2.11.
Work on H20R yielded a protein stability index of 4.2.
L2G gave a protein stability index of 1.2.
With A6E the protein stability index was 1.54.
Work on T8E yielded a protein stability index of 2.03.
V21Q showed a protein stability index of 1.69.
Variant A1L has a protein stability index of 2.58.
Work on T8C yielded a protein stability index of 2.94.
Variant L3E has a protein stability index of 1.94.
T8V showed a protein stability index of 1.01.
In the case of T8L, the protein stability index is reported as 4.17.
For E7F, the protein stability index was 2.64.
Work on Q10H yielded a protein stability index of 1.99.
With V21E the protein stability index was 1.53.
